Results on 18 sequences are retold here after a protein production outcome set (Wang et al. 2014).

A short description of the data set: label from the status in PepcDB records.
For “MSDIAVRPIRAEDVPQACAILNRIIEIGGTTAFEQPVSEDEFDAWYVNGADLICCHVALDAAGAVAGFQWLGRNDSLPEGCGDIASFTRREPVLRGAGRALFACTVAVARDRGLAEINATIRADNALGLAYYGKMGFRDHVVTPAVPLRDGRPVDRISKRFDLRG”, the protein production result was “failed”.

“MSDIKHEKKLANMDTPGETTKSFENKLDEEIPDIEESDFINSPPFSDEIFSPEDSKQVEISELSKQAYSLLKGNSITEAINVFKKILELDPTNNYALVGLGDAERKNNKFNEAIKFYKQCLEHHPSNNYALFGLADCYKSMNQFPRAIAIWEEYLKFDDKNITVLTRVADAYRKTKEFEKAEKLYQKVLEKSPKNAYALIGLGHLNYDFKKYREALVYWEKVMESSGELVDIRILTSIGNCYRKMKLFDRGVYYFERALERSPDNFYGLFGLADCYRGLNQQYNSIVYWKKILELDPNNKVILTRIGDAYRSMNDFEKAKESYQKALDIDFDSYAMLGLAILCKLQQKYDQAITTLTHLKDTGDTNYNYRVYLELAQCYIEKKEKQKAIETLIDFQKLGIKNQTVSDLLFELTKNDH”: the protein production result is given as “failed”.

Take “MSDIKKLGSSWIINWFFGFNQIPTNEDSSIYMKSVLTCAKADGVISPEEKDWALGFCASWGVADWVIEDLKTYEADEALEEVIARSPQVSMAQRDILLSAIWVSAADGELHEKEKAKIRKMATILGIKEEIVDQLEQLYYYEAALRQKRLNLLYPQKSPY”: the protein production result was “not failed”.

For the sequence “MSDIQVRHVEADKQFVIAVDGEDAGFAGYAERDGHRNFNHTVIDPRFRGQGLSQPLIQQALEATHADGLGVIATCSAVVGFVQKNPEFRDYLA”, the protein production result is “failed”.

With “MSDKHDVIVAGAGPAGAQCARDLAERGYDVVVLEAEPEDEFPRQSNKSTAGTFASMMGAFGVPDDVVMQYTDDVVLESPHEYFVQDQPGAVLEFAEFKQWLVAAGEQQGAEYRFEARVNNPITEGGEIVGVKYDGDEEVYGDIIIDATGPAAPLAKKLGVTDLRRSNQAIGIEWEMENVAVDHEGYADLSDAMMLRLDHDLAPGGYSWIFHTGADTAKVGICYIQNESYQRFGDASKSIDDHLDYWMETDPRLADATKLAGKQHRGSAHIQLPANFSTDNFMAIGDTVPTVDPLWGEGIHKCMESARAAAITADRCFMGDDRDTSADALSIYDDLWHKRVAPNARMRLTMTQLLYLASNERYDRLMSDLQTADVGTLSGANEGGLRSLLEFVHTEDVPLLARFARDRLRA”, the protein production result is “failed”.

As to “MSDLITLAQLSQGYRYNSDSLILADFILKQGIKGAVFDVGAGCGIIGILLKKNIANLSLSLIDIQKENIELIEKNLKSNKIQGDIFHDDFNQFQIIKKFDFIVCNPPFYRQGAYKSEDQHKAISKFQEFLPLHSFLAKTNSMLKPNGTLYFCYEALALDEICFILKDMKMKITKLCFVHTHQSKKARLVLIQVKKGSKSPCEILPPFFVYENEILSKQMQEIHLRFRLKSYDI”, the protein production result is listed as “failed”.

For “MSDLLDTVRGLAKKTDSKILMVVLDGVGGLPLTVNGDTELATARTPNLDALAQESQLGQLELVGAGITPGSGPGHLSLFGYDPLKYVVGRGALSAVGIGVKLNRGDVAVRGNFATLGAGRLILDRRAGRPSDEKNAEIVAKLRAAIPEIDGVAVEVYTESEHRFVVVFRAPEGQPLGANISDVDPQVTGVEPKTAIANDPSSEVTAGLINTFVARAEVALADEPQVNGVLFRGYSDVPHFPSFEDAYQLKAACIASYPMYKGLASLVGMDVLPVEGHEDALEGKVKALRENWAKYDFFYFHIKKTDSTGEDGDFAEKVHKIELFDELLPQLLELQPDVIAVVGDHSTPSKLKSHSWHPVPLLIRSNYGRRDPAQRYTEEEAARGTLGLRHGPDLMPLLMANALKLNKYGALEHHHHHH”, the protein production entry is reported as “not failed”.

Consider “MSDMFLPARMRKLKIITLDQYSDSVVRSLHEEGVTQIDDISERIQQDAEWRQILKPSRATPYTGRVSSLLMKTSGILDFLGSVAAEEKGLRDTIREFINPPIFEKREVEELDTESLIERAEETLGRVESETRVMEEKLNELDSERSAVESSLSVAEKLKDFDIDFSDLQDSEYITGIAGRITAENLPELRDKLADITDELVISDREGENKAERILIIVTLKKHADSIASVLRRMEFERFEISELQGRPSEIISSSKTRLEEISRERKEIISKLRDINAEWEDELLVLREQLEIEKERNEVFSLFGETRKTVMLEAWVPLKEADRVIAVVEESSEGTALTDLEDPDPEEVPVLLDNPRFAKPYETFVEMYSPLKYNEIDPTIFMAFVFPFFFGFCLTDAGYGIIDALIGFILYRGLGKVNNFMRNFGIIMMSCGVWAFILGMVTNGFIGDFFPRFFNITLPTVIPAIDAFVNPQNILIMALTVGVLHINFGLILGARNNIRLGNMREALGSQIVWLILELGIILYLVGGMIFGAPLIILAFAMLLYYNGLFGLMDVSGFLGTLLSYARLLALCLSTGGIAMTVNILTGLSYEMIPVIGVVLAPIIFVFGHIANNAFQSLGAFINSLRLHYVEFFAQFYMGGKNKFNAFRAERNFTKIRR”, for which the protein production result is reported as “failed”.

Turning to “MSDMGVIVKTNARALIPLIGVFGSYIILHGHLTPGGGFQGGATIVGTALLFLIAFGVDEAKKRINKDLYSALEGIGGLVFLGAAMLGLSVAFFYNILWHKGPLFNGRPGTLLSAGFLPIMNLGVGLKVFTGLVSAVFALALFRRWKE”, the protein production entry was “failed”.

For “MSDNAKHHRDGHLVASGLQDRAARTPQHEGFLGPDRPWHLSFSLLLAGSFVLFSWWAFDYAGSGANKVILVLATVVGMFMAFNVGGNDVANSFGTSVGAGTLTMKQALLVAAIFEVSGAVIAGGDVTETIRSGIVDLSGVSVDPRDFMNIMLSALSAAALWLLFANRMGYPVSTTHSIIGGIVGAAIALGMVSGQGGAALRMVQWDQIGQIVVSWVLSPVLGGLVSYLLYGVIKRHILLYNEQAERRLTEIKKERIAHRERHKAAFDRLTEIQQIAYTGALARDAVAANRKDFDPDELESDYYRELHEIDAKTSSVDAFRALQNWVPLVAAAGSMIIVAMLLFKGFKHMHLGLTTMNNYFIIAMVGAAVWMATFIFAKTLRGESLSRSTFLMFSWMQVFTASGFAFSHGSNDIANAIGPFAAILDVLRTGAIEGNAAVPAAAMVTFGVALCAGLWFIGRRVIATVGHNLTTMHPASGFAAELSAAGVVMGATVLGLPVSSTHILIGAVLGVGIVNRSTNWGLMKPIVLAWVITLPSAAILASVGLVALRAIF”, the protein production entry is on record as “failed”.

On to “MSDNALTSSRRFGGIARLYGDSALAHFSQAHVCVVGVGGVGSWAVEALARTGIGRLTLIDLDNVAESNVNRQLHALTGDFGKAKVTALRERITQINPQCEVFEIEDFVTEDNLPEYFGKGFDFVIDAIDQVRVKAAMAAYFVERKQPFVLSGGAGGQKNPALIQTADLSRVTHDPLLANLRYTLRKRYGFSRDTKANMRVPCVYSTENIVPPQSREACSADAAPQGLSCAGYGASMLVTASFGLYCAQAAVEHIADKKLEHHHHHH”, for which the protein production result is recorded as “not failed”.

As for “MSDPAIAVLPYGMKLGPALSGLPLDQVNWPLGCPERLVGKTLGDLGAGDHLLVYPRTGTHFQLSRGTRARISLIMAEPAVIHAKHYALLRVTWRRFHRVLTFNQAAVDRLPNARLLLFGSTWVPEWQSLTPEKVAQCSLIASAKRDSTGHKLRHAVVDWVRASDQDVAVLGRGYQPFDSKADGLAPYRYSVVIENVQERNYFSEKLLDAVFCETVPIYWGCPNIADFVDTTAMILCTREEDIRRAVAEMSAEDYAARLPALRALKQQLAPYAAHEARAARMILDELLEHHHHHH”, the protein production entry is recorded as “not failed”.

As for “MSDQPRPTVIITGASSGVGLYATKALANRGWHVIMACRNLEKAEQAAKNLQIPPEAYTILHLDLSSLASVRGFVESFRALNRPLRALVCNAAVYYPLLKEPIYSVDGYEITVATNHLGHFLLINLLLEDLKNSPESDKRLVILGTVTANRKELGGKIPIPAPPDLGNLEGFEKGFKKPIAMINGKPFKSGKAYKDSKLCNMLTARELHRRFHESTGIVFNSLYPGCVADTPLFRHHFPLFQKLFPLFQKKITGGYVSQELAGERVAMVVADPEFRQSGVHWSWGLEHHHHHH”, the protein production entry is listed as “not failed”.

Regarding “MSDRFVIWAPSMHNEPAAKCGYCHGNKGGNMDQLFALDSWAHRYMNKMDVVKIENCTIGSFVEHMDVATYDRMCNMGFRRSGKFLYKVDPLRNCCRLYTIRTAPQELNMTKELKKCISRFATRITSEDYCPAAVASSDFVGKIVNAEMNSKTFYTRFEPALYSEEKYHLFVKYQEKVHQDYNNSPKSFKRFLCDTPFGPEAVLGTQESWEQLNNWQRMKPGEKLKHMGPVHECYYYEGKLIAITVSDILPSGISSVYFIWDPDYSKWSLGKLSALRDLAIIQRTNLQYYYLGYYIEDCPKMNYKANYGAEVLDVCHSKYIPLKPIQDMISRGKLFVIGEEETKVTKELYLVDSETGRGEGFPTDNVVKYKNIAEEIYGVGGCAFKSANESALELKELYGIPYEEEDLDTIYHLKEHNGHAPNGIPNVVPGLLPLWELLDIMQSGKITDLEGRLFLFEIETEGIRPLINFYSEPPNVKKRICDVIRLFGFETCMKAVILYSEQM”, the protein production entry is given as “failed”.

With “MSDRGASAPSLPDDWPAHPDPILALNRMGSFDWDLDAGLFHMDAQAHEVFDLRPEEYDGRPESLALRVPTAESRRMDTIVARAMKDGSENYGTYFRLRRRDGTLRWTHTQGYIRRDETGRPRRIIGIVRDATQ”, the protein production entry is “failed”.

As for “MSDSDAMTDPNAVSYSNAIVVLCTAPDEASAQNLAAQVLGEKLAACVTLLPGATSLYYWEGKLEQEYEVQLLFKSNTDHQQALLTYIKQHHPYQTPELLVLPVRDGDKDYLSWLNASLL”, the protein production result was “failed”.

Take “MSDSKFLRGTLIVTLGTFLVKFLGMIYVFPFHALVGTEGGTLYTYGYIPYTIFLSIATAGVPLAVSKFVSKYNALGDYKTSRRMFRSGMVMMIVTGVLSFLVLYMTAPLFAEAMLGKQSIHNNVGEVTTIIRLVSFALIVVPAASLIRGYFQGHQSMGPTTVSQIIEQIIRIVFLLAGSFIVIKVLGGTVATAVGVATFAAFVSAVGALGVLIWYWLKRKKYLDQYLIEQTVPESTVSTVQLFKELFAYAIPYVVIGLTIPLYQQIDTLTFNSIMQAIGQGDIAERALGIFTMWTHKLIMIPVSLATAFSLTLVPAITKSFTEKQYRYLKLQITQTFQANMFLTLPAVVGISSLAYPIYTAFYDSDPLGGQVLMWYAPVALLFALFTVTAAILQGINQQKHAIIALIMGVILKFVCNVIFIRYFGTVGAILATAVGFLASVWYTNQQIKKYAHYSFGVVYKRTFQIAVLTLIMVVAVKLSQWILSFMISPDGRIGALITVAICAGIGGLVYGLLAIRTGVLERVFGGEALDKIQRKLGSRFKIKLKSRGA”: the protein production entry is “not failed”.

Regarding “MSDSKFLRGTLIVTLGTFLVKFLGMIYVFPFHALVGTEGGTLYTYGYIPYTIFLSIATAGVPLAVSKFVSKYNALGDYKTSRRMFRSGMVMMIVTGVLSFLVLYMTAPLFAEAMLGKQSVHSNIGEVTTIIRLVSFALIVVPAASLIRGYFQGHQSMGPTTVSQIIEQIIRIVFLLAGSFIVIKVLGGTVATAVGVATFAAFVSAVGALGVLIWYWLKRKKHLDQYLIEQTALESTVSTVQLFKELFAYAIPYVVIGLTIPLYQQIDTLTFNSIMQAIGQGDIAERALGIFTMWTHKLIMIPVSLATAFSLTLVPAITKSFTEKQYRYLKLQITQTFQANMFLTLPAVVGISSLAYPIYTAFYDSDPLGGQVLMWYAPVALLFALFTVTAAILQGINQQKHAIIALIMGVILKFVCNVIFIRYFGTVGAILATAVGFLVSVWYTNQQIKKYAHYSFGVVYKRTFQIAVLTLVMVVTVKLSQWILSFMISPDGRMGALITVAICAGIGGLVYGLLAIRTGVLERVFGGEALEKIQRKLGNRFKIKLKSKGA”, the protein production entry is “failed”.
